Target: human prothrombin, P00734

Protein | Ecarin Activity, 48 Hours, +APMA | Ecarin Activity, 48 Hours, -APMA | Ecarin Activity, 120 Hours, +APMA | Ecarin Activity, 120 Hours, -APMA | prothrombin converting activity | conversion of prothrombin to thrombin by immobilized ecarin, Coomassie stained SDS-PAGE
preproecarin S396, delta IV (pDOEC37) (protein) CSIILGSGNVNDYEVVYPQKVTALPKGAVQQPEQKYEDAMQYEFEVKGEPVVLHLEKNKELFSEDYSETHYSSDDREITTNPSVEDHCYYHGRIQNDAESTASISACNGLKGHFKLRGETYFIEPLKIPDSEAHAVYKYENIENEDEAPKMCGVTQDNWESDEPIKKTLGLIVPPHERKFEKKFIELVVVVDHSMVTKYNNDSTAIRTWIYEMLNTVNEIYLPFNIRVALVGLEFWCNGDLINVTSTADDTLHSFGEWRASDLLNRKRHDHAQLLTNVTLDHSTLGITFVYGMCKSDRSVELILDYSNITFNMAYIIAHEMGHSLGMLHDTKFCTCGAKPCIMFGKESIPPPKEFSSCSYDQYNKYLLKYNPKCILDSPLRKDIASPAVCGNEIWEEGEECDCGSPADCRNPCCDAATCKLKPGAECGNGECCDKCKIRKAGTECRPARDDCDVAEHCTGQSAECPRNEFQR | 0 | 0 | 68 | 34 | Deletion of the Cys-rich domain (positions 491 to 616) or the disintegrin and Cys-rich domains (398-616) abolished all ecarin activity in the presence or absence of APMA | –
preproecarin S396, S170, delta IV (pDOEC39) (protein) CSIILGSGNVNDYEVVYPQKVTALPKGAVQQPEQKYEDAMQYEFEVKGEPVVLHLEKNKELFSEDYSETHYSSDDREITTNPSVEDHCYYHGRIQNDAESTASISACNGLKGHFKLRGETYFIEPLKIPDSEAHAVYKYENIENEDEAPKMSGVTQDNWESDEPIKKTLGLIVPPHERKFEKKFIELVVVVDHSMVTKYNNDSTAIRTWIYEMLNTVNEIYLPFNIRVALVGLEFWCNGDLINVTSTADDTLHSFGEWRASDLLNRKRHDHAQLLTNVTLDHSTLGITFVYGMCKSDRSVELILDYSNITFNMAYIIAHEMGHSLGMLHDTKFCTCGAKPCIMFGKESIPPPKEFSSCSYDQYNKYLLKYNPKCILDSPLRKDIASPAVCGNEIWEEGEECDCGSPADCRNPCCDAATCKLKPGAECGNGECCDKCKIRKAGTECRPARDDCDVAEHCTGQSAECPRNEFQR | 0 | 0 | 0 | 0 | Deletion of the Cys-rich domain (positions 491 to 616) or the disintegrin and Cys-rich domains (398-616) abolished all ecarin activity in the presence or absence of APMA | –
preproecarin S396, S170, His6 (pDOEC35) (protein) CSIILGSGNVNDYEVVYPQKVTALPKGAVQQPEQKYEDAMQYEFEVKGEPVVLHLEKNKELFSEDYSETHYSSDDREITTNPSVEDHCYYHGRIQNDAESTASISACNGLKGHFKLRGETYFIEPLKIPDSEAHAVYKYENIENEDEAPKMSGVTQDNWESDEPIKKTLGLIVPPHERKFEKKFIELVVVVDHSMVTKYNNDSTAIRTWIYEMLNTVNEIYLPFNIRVALVGLEFWCNGDLINVTSTADDTLHSFGEWRASDLLNRKRHDHAQLLTNVTLDHSTLGITFVYGMCKSDRSVELILDYSNITFNMAYIIAHEMGHSLGMLHDTKFCTCGAKPCIMFGKESIPPPKEFSSCSYDQYNKYLLKYNPKCILDSPLRKDIASPAVCGNEIWEEGEECDCGSPADCRNPCCDAATCKLKPGAECGNGECCDKCKIRKAGTECRPARDDCDVAEHCTGQSAECPRNEFQRNGQPCLNNSGYCYNGDCPIMLNQCIALFSPSATVAQDSCFQRNLQGSYYGYCTKEIGYYGKRFPCAPQDVKCGRLYCLDNSFKKNMRCKNDYSYADENKGIVEPGTKCEDGKVCINRKCVDVNTAYHHHHHH | 7,526 | 12,127 | 14,850 | 20,524 | Alteration of position 170 to serine resulted in constituitive activation of proecarin, which was partially inhibited by the addition of APMA | –
preproecarin P396, His6 (pDOEC34) (protein) CSIILGSGNVNDYEVVYPQKVTALPKGAVQQPEQKYEDAMQYEFEVKGEPVVLHLEKNKELFSEDYSETHYSSDDREITTNPSVEDHCYYHGRIQNDAESTASISACNGLKGHFKLRGETYFIEPLKIPDSEAHAVYKYENIENEDEAPKMCGVTQDNWESDEPIKKTLGLIVPPHERKFEKKFIELVVVVDHSMVTKYNNDSTAIRTWIYEMLNTVNEIYLPFNIRVALVGLEFWCNGDLINVTSTADDTLHSFGEWRASDLLNRKRHDHAQLLTNVTLDHSTLGITFVYGMCKSDRSVELILDYSNITFNMAYIIAHEMGHSLGMLHDTKFCTCGAKPCIMFGKESIPPPKEFSSCSYDQYNKYLLKYNPKCILDPPLRKDIASPAVCGNEIWEEGEECDCGSPADCRNPCCDAATCKLKPGAECGNGECCDKCKIRKAGTECRPARDDCDVAEHCTGQSAECPRNEFQRNGQPCLNNSGYCYNGDCPIMLNQCIALFSPSATVAQDSCFQRNLQGSYYGYCTKEIGYYGKRFPCAPQDVKCGRLYCLDNSFKKNMRCKNDYSYADENKGIVEPGTKCEDGKVCINRKCVDVNTAYHHHHHH | 32 | 36 | 0 | 43 | Proecarin having the sequence disclosed in Nishida et al. (supra) had no activity in the presence or absence of APMA | –
preproecarin S396, His6 (pDOEC30) (protein) CSIILGSGNVNDYEVVYPQKVTALPKGAVQQPEQKYEDAMQYEFEVKGEPVVLHLEKNKELFSEDYSETHYSSDDREITTNPSVEDHCYYHGRIQNDAESTASISACNGLKGHFKLRGETYFIEPLKIPDSEAHAVYKYENIENEDEAPKMCGVTQDNWESDEPIKKTLGLIVPPHERKFEKKFIELVVVVDHSMVTKYNNDSTAIRTWIYEMLNTVNEIYLPFNIRVALVGLEFWCNGDLINVTSTADDTLHSFGEWRASDLLNRKRHDHAQLLTNVTLDHSTLGITFVYGMCKSDRSVELILDYSNITFNMAYIIAHEMGHSLGMLHDTKFCTCGAKPCIMFGKESIPPPKEFSSCSYDQYNKYLLKYNPKCILDSPLRKDIASPAVCGNEIWEEGEECDCGSPADCRNPCCDAATCKLKPGAECGNGECCDKCKIRKAGTECRPARDDCDVAEHCTGQSAECPRNEFQRNGQPCLNNSGYCYNGDCPIMLNQCIALFSPSATVAQDSCFQRNLQGSYYGYCTKEIGYYGKRFPCAPQDVKCGRLYCLDNSFKKNMRCKNDYSYADENKGIVEPGTKCEDGKVCINRKCVDVNTAYHHHHHH | 74,077 | 20,079 | 164,602 | 28,372 | Proecarin having a serine at position 396 was active in the absence of APMA, and the amount of activity increased several fold by pretreatment with APMA | essentially complete (greater than 95%)
preproecarin S396, delta III, IV (pDOEC38) (protein) CSIILGSGNVNDYEVVYPQKVTALPKGAVQQPEQKYEDAMQYEFEVKGEPVVLHLEKNKELFSEDYSETHYSSDDREITTNPSVEDHCYYHGRIQNDAESTASISACNGLKGHFKLRGETYFIEPLKIPDSEAHAVYKYENIENEDEAPKMCGVTQDNWESDEPIKKTLGLIVPPHERKFEKKFIELVVVVDHSMVTKYNNDSTAIRTWIYEMLNTVNEIYLPFNIRVALVGLEFWCNGDLINVTSTADDTLHSFGEWRASDLLNRKRHDHAQLLTNVTLDHSTLGITFVYGMCKSDRSVELILDYSNITFNMAYIIAHEMGHSLGMLHDTKFCTCGAKPCIMFGKESIPPPKEFSSCSYDQYNKYLLKYNPKCILDSP | 0 | 0 | 14 | 0 | Deletion of the Cys-rich domain (positions 491 to 616) or the disintegrin and Cys-rich domains (398-616) abolished all ecarin activity in the presence or absence of APMA | –
preproecarin S396, S170 delta III, IV (pDOEC40) (protein) CSIILGSGNVNDYEVVYPQKVTALPKGAVQQPEQKYEDAMQYEFEVKGEPVVLHLEKNKELFSEDYSETHYSSDDREITTNPSVEDHCYYHGRIQNDAESTASISACNGLKGHFKLRGETYFIEPLKIPDSEAHAVYKYENIENEDEAPKMSGVTQDNWESDEPIKKTLGLIVPPHERKFEKKFIELVVVVDHSMVTKYNNDSTAIRTWIYEMLNTVNEIYLPFNIRVALVGLEFWCNGDLINVTSTADDTLHSFGEWRASDLLNRKRHDHAQLLTNVTLDHSTLGITFVYGMCKSDRSVELILDYSNITFNMAYIIAHEMGHSLGMLHDTKFCTCGAKPCIMFGKESIPPPKEFSSCSYDQYNKYLLKYNPKCILDSP | 50 | 0 | 0 | 0 | Deletion of the Cys-rich domain (positions 491 to 616) or the disintegrin and Cys-rich domains (398-616) abolished all ecarin activity in the presence or absence of APMA | –

Reference: patent US6413737
